Source: article PMC5452035 (2017)
Non-standard residues stand in square brackets, D forms with d. No end group written: not given here. pT = C[C@@H](OP(=O)(O)O)[C@H](N)C(=O)O; FAM = 5,6-carboxyfluorescein

Target: T1, Rtt103p CID Q19A (Saccharomyces cerevisiae)
T1 chain: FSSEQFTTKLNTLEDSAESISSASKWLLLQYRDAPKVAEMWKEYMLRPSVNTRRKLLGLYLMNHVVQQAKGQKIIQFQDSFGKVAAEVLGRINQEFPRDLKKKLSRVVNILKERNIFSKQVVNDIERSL
Assay: FP

**Q.** For {FAM}-PSYSP[pT]SPSYSPTSPS [FAM-PSYSP(pT)SPSYSPTSPS], which Kd is on record?
**A.** 48 µM
